B1: bacteriophage T7 gp15 core protein (natural protein, UniProt P03725 1-747, looked up)
chain: MSKIESALQAAQPGLSRLRGGAGGMGYRAATTQAEQPRSSLLDTIGRFAKAGADMYTAKEQRARDLADERSNEIIRKLTPEQRREALNNGTLLYQDDPYAMEALRVKTGRNAAYLVDDDVMQKIKEGVFRTREEMEEYRHSRLQEGAKVYAEQFGIDPEDVDYQRGFNGDITERNISLYGAHDNFLSQQAQKGAIMNSRVELNGVLQDPDMLRRPDSADFFEKYIDNGLVTGAIPSDAQATQLISQAFSDASSRAGGADFLMRVGDKKVTLNGATTTYRELIGEEQWNALMVTAQRSQFETDAKLNEQYRLKINSALNQEDPRTAWEMLQGIKAELDKVQPDEQMTPQREWLISAQEQVQNQMNAWTKAQAKALDDSMKSMNKLDVIDKQFQKRINGEWVSTDFKDMPVNENTGEFKHSDMVNYANKKLAEIDSMDIPDGAKDAMKLKYLQADSKDGAFRTAIGTMVTDAGQEWSAAVINGKLPERTPAMDALRRIRNADPQLIAALYPDQAELFLTMDMMDKQGIDPQVILDADRLTVKRSKEQRFEDDKAFESALNASKAPEIARMPASLRESARKIYDSVKYRSGNESMAMEQMTKFLKESTYTFTGDDVDGDTVGVIPKNMMQVNSDPKSWEQGRDILEEARKGIIASNPWITNKQLTMYSQGDSIYLMDTTGQVRVRYDKELLSKVWSENQKKLEEKAREKALADVNKRAPIVAATKAREAAAKRVREKRKQTPKFIYGRKE
B2: bacteriophage T7 gp16 core protein (natural protein, UniProt P03726 1-1318, looked up)
chain: MDKYDKNVPSDYDGLFQKAADANGVSYDLLRKVAWTESRFVPTAKSKTGPLGMMQFTKATAKALGLRVTDGPDDDRLNPELAINAAAKQLAGLVGKFDGDELKAALAYNQGEGRLGNPQLEAYSKGDFASISEEGRNYMRNLLDVAKSPMAGQLETFGGITPKGKGIPAEVGLAGIGHKQKVTQELPESTSFDVKGIEQEATAKPFAKDFWETHGETLDEYNSRSTFFGFKNAAEAELSNSVAGMAFRAGRLDNGFDVFKDTITPTRWNSHIWTPEELEKIRTEVKNPAYINVVTGGSPENLDDLIKLANENFENDSRAAEAGLGAKLSAGIIGAGVDPLSYVPMVGVTGKGFKLINKALVVGAESAALNVASEGLRTSVAGGDADYAGAALGGFVFGAGMSAISDAVAAGLKRSKPEAEFDNEFIGPMMRLEARETARNANSADLSRMNTENMKFEGEHNGVPYEDLPTERGAVVLHDGSVLSASNPINPKTLKEFSEVDPEKAARGIKLAGFTEIGLKTLGSDDADIRRVAIDLVRSPTGMQSGASGKFGATASDIHERLHGTDQRTYNDLYKAMSDAMKDPEFSTGGAKMSREETRYTIYRRAALAIERPELQKALTPSERIVMDIIKRHFDTKRELMENPAIFGNTKAVSIFPESRHKGTYVPHVYDRHAKALMIQRYGAEGLQEGIARSWMNSYVSRPEVKARVDEMLKELHGVKEVTPEMVEKYAMDKAYGISHSDQFTNSSIIEENIEGLVGIENNSFLEARNLFDSDLSITMPDGQQFSVNDLRDFDMFRIMPAYDRRVNGDIAIMGSTGKTTKELKDEILALKAKAEGDGKKTGEVHALMDTVKILTGRARRNQDTVWETSLRAINDLGFFAKNAYMGAQNITEIAGMIVTGNVRALGHGIPILRDTLYKSKPVSAKELKELHASLFGKEVDQLIRPKRADIVQRLREATDTGPAVANIVGTLKYSTQELAARSPWTKLLNGTTNYLLDAARQGMLGDVISATLTGKTTRWEKEGFLRGASVTPEQMAGIKSLIKEHMVRGEDGKFTVKDKQAFSMDPRAMDLWRLADKVADEAMLRPHKVSLQDSHAFGALGKMVMQFKSFTIKSLNSKFLRTFYDGYKNNRAIDAALSIITSMGLAGGFYAMAAHVKAYALPKEKRKEYLERALDPTMIAHAALSRSSQLGAPLAMVDLVGGVLGFESSKMARSTILPKDTVKERDPNKPYTSREVMGAMGSNLLEQMPSAGFVANVGATLMNAAGVVNSPNKATEQDFMTGLMNSTKELVPNDPLTQQLVLKIYEANGVNLRERRK

Assays:
[1] = target: the molecule itself; assay: AUC + other: dynamic light scattering
[2] = target: B1; assay: AUC

Binder | stoichiometry N [1] | stoichiometry N [2]
B1 | 6 | –
B2 | – | 6 gp16 monomers per gp15 hexamer

Source: paper doi:10.1101/2021.01.04.424714 (bioRxiv, 2021)
